According to patent US20200147215A1, “DRUG CONJUGATES WITH PHOTOCLEAVABLE SOLUBILITY MODULATORS” (priority 2017, published 2020):
Where two headings read alike, the source gives them in different places.

How the values were obtained:
[1] = Isoelectric point (IEF gel); format: physicochemical; settings: FIG. 33
[2] = Photolysis of G2PEA-insulin dissolved in DMSO, analyzed by gel; format: physicochemical; settings: over the irradiation time period, FIG. 35
Description: The lower band is insulin.

[3] = Solubility of non-polar-tag insulin conjugates vs insulin (shaken with PBS pH 7.2, supernatant analyzed)
Description: (§1) Diazo was allowed to react for 24 hours. Reaction progress may be monitored on HPLC with a C18 column.
It was hypothesized solubility would be further lowered by the Val-Val-Val peptide being allowed to pack more efficiently than in the Val-Pro-Ile peptide.

[4] = Photolysis release of insulin from conjugate vs irradiation time; format: physicochemical
Description: as §1

[5] = Quantitative solubility of G2PEA-insulin and insulin in buffer at pH 7.2 and pH 5.4
[6] = stated in description, no experiment; cited from earlier work

| Substance | isoelectric point [1] | conversion to insulin upon irradiation [2] | Solubility mM ([3]; Table 3) [mM] | Solubility mg/ml ([3]; Table 3) [mg/mL] | Solubility mM ([3]; Table 5) [mM] | Solubility mg/ml ([3]; Table 5) [mg/mL] | photolysis release rate constant k ([4]; FIG. 7, insulin released into solution v. irradiation time) [min-] | photolysis release rate constant k ([4]; fit B=A0(1−exp(−kt)), FIG. 19) [min⁻¹] | Solubility ([5]; Table 7, pH 7.2 buffer) [µM] | Solubility ([5]; Table 8, pH 5.4) [µM] | isoelectric point [6] |
| --- | --- | --- | --- | --- | --- | --- | --- | --- | --- | --- | --- |
| G2PEA-insulin drug conjugate: drug conjugate of insulin and glutamic acid condensed with two 1-(2-Aminoethyl)pyrrolidine moieties (G2PEA), photocleavable link | ~7 | all of the G2PEA insulin is consumed, and insulin is released | – | – | – | – | – | – | – | – | – |
| CD-insulin: drug conjugate of insulin and a cyclododecyl amine non-polar moiety joined by a DMNPE-type photocleavable group | – | – | 0.009 | 0.06 | 0.009 | 0.06 | 0.154 | 0.154 | – | – | – |
| insulin [reference compound] | – | – | 0.708 | 4.11 | 0.708 | 4.11 | – | – | 1053.3 ± 158.1 | 17.1 ± 2.1 | ~5.4 |
